Results published in US20100183625A1, “Treatment of Mucositis with Kallikrein Inhibitors” (Dyax Corp., priority 2009, published 2010).
Residue numbers refer to the chain shown, from its start.

B1: M12-D05: antibody inhibitor of pKal; HV-CDR3 EGLLWFGENAFDI (antibody, V domains shown)
VL: QSVLTQPPSVSVSPGQTATITCSGDQLGDKYVGWYQQKPGQSPILVIYQDTKRPSGIPERFSGSNSGNTATLTISGTHTVDEAHYYCQAWDTSTAGFGGGTKLTVL
VH: EVQLLESGGGLVQPGGSLRLSCAASGFTFSWYTMVWVRQAPGKGLEWVSRIYPSGGWTKYADSVKGRFTISRDNSKNTLYLQMNSLRAEDTATYYCAREGLLWFGENAFDIWGQGTMVTVSSASTKGPSVFPLAPSSKS
B2: M28-B11: antibody inhibitor of pKal; HV-CDR3 EGLLWFGENAFDI (antibody, V domains shown)
VL: B1 VL
VH: B1 VH
B3: M137-E12: antibody inhibitor of pKal; HV-CDR3 … (antibody, V domains shown)
VL: QSVLIQPPSVSGIPGQRVTISCSGNNSNFGSNTVTWYQQLPGTAPKLLIYSDSRRPSGVPDRFSGSRSDTSASLAISGLQSEDEAEYHCAAWDDSLNGVFGGGTKLTVL
VH: EVQLLESGGGLVQPGGSLRLSCAASGFTFSDYRMQWVRQAPGKGLEWVSVIVPSGGNTMYADSVKGRFTISRDNSKNTLYLQMNSLRAEDTAVYYCARGGPGSSIAARRAPTGYYGMDVWGQGTTVTVSSASTKGPSVFPLAPSSKS
B4: M202-A12 (antibody, V domains shown)
VL: QDIQMTQSPSTLSASVGDRVTITCRASQSISSWLAWYQQKPGKAPNLLIYKASTLESGVPSRFSGSGSGTEFTLTISSLQPDDFATYYCQQYNTYWTFGQGTKVEIK
VH: EVQLLESGGGLVQPGGSLRLSCAASGFTFSHYIMMWVRQAPGKGLEWVSGIYSSGGITVYADSVKGRFTISRDNSKNTLYLQMNSLRAEDTAVYYCAYQRTGVPRRDSFNIWGQGTMVTVSSASTKGPSVFPLAPSSKS
B5: M210-C12 (antibody, V domains shown)
VL: QDIQMTQSPGTLSLSPGERATLSCRTSQFVNSNYLAWYQQTPGQAPRLLIYGASSRATGIPDRFSGTGYGTDFTLTISRLEPEDYGTYYCQQSSRTPWTFGQGTRVEIK
VH: EVQLLESGGGLVQPGGSLRLSCAASGFTFSHYLMTWVRQAPGKGLEWVSYISPSGGHTIYADSVKGRFTISRDNSKNTLYLQMNSLRAEDTAVYYCARVAQGIAARSRTSSVDQWGQGTLVTVSSASTKGPSVFPLAPSSKS
B6: M209-F04 (antibody, V domains shown)
VL: B5 VL
VH: B5 VH with Q101R, S111Y, V112L
B7: M206-F01 (antibody, V domains shown)
VL: B5 VL
VH: B5 VH with H31G, L33M, T35V, Y50R, H57P, Q101R, S111Y, V112F, Q114Y
B8: X66-H04: single point mutation of M142-H08 (P1); HV-CDR3 GGLLLWFFELKSNYFDY (antibody, V domains shown)
VL: QDIQMTQSPSSLSAFVGDRVTITCRASQPIDNYLNWYHQKPGKAPKLLIYAASRLQSGVPSRLSGSGFGTDFTLTISSLQPEDFGNYYCQQSYTVPYTFGGGTKVEIR
VH: EVQLLESGGGLVQPGGSLRLSCAASGFTFSAYSMIWVRQAPGKGLEWVSYIRPSGGRTTYADSVKGRFTISRDNSKNTLYLQMNSLRAEDTAVYYCARGGLLLWFFELKSNYFDYWGQGTLVTVSSASTKGPSVFPLAPSSKS
B9: X66-C02: single point mutation of M142-H08 (P1); HV-CDR3 GGLLLWFVELKSNYFDY (antibody, V domains shown)
VL: B8 VL
VH: B8 VH with F106V
B10: X66-H02: single point mutation of M142-H08 (P1); HV-CDR3 GGLLLWFGELKSNYFDY (antibody, V domains shown)
VL: B8 VL
VH: B8 VH with F106G
B11: X66-F01: single point mutation of M142-H08 (P1); HV-CDR3 GGLLLWFSELKSNYFDY (antibody, V domains shown)
VL: B8 VL
VH: B8 VH with F106S
B12: X66-C03: single point mutation of M142-H08 (P1); HV-CDR3 GGLLLWFLELKSNYFDY (antibody, V domains shown)
VL: B8 VL
VH: B8 VH with F106L
B13: X66-H11: single point mutation of M142-H08 (P1); HV-CDR3 GGLLLWFTELKSNYFDY (antibody, V domains shown)
VL: B8 VL
VH: B8 VH with F106T
B14: X66-F10: single point mutation of M142-H08 (P1); HV-CDR3 GGLLLWFPELKSNYFDY (antibody, V domains shown)
VL: B8 VL
VH: B8 VH with F106P
B15: X66-F09: single point mutation of M142-H08 (P1); HV-CDR3 GGLLLWFWELKSNYFDY (antibody, V domains shown)
VL: B8 VL
VH: B8 VH with F106W
B16: X66-A07: single point mutation of M142-H08 (P1); HV-CDR3 GGLLLWFKELKSNYFDY (antibody, V domains shown)
VL: B8 VL
VH: B8 VH with F106K
B17: X66-G05: single point mutation of M142-H08 (P1); HV-CDR3 GGLLLWFMELKSNYFDY (antibody, V domains shown)
VL: B8 VL
VH: B8 VH with F106M
B18: X66-C11: single point mutation of M142-H08 (P1); HV-CDR3 GGLLLWFHELKSNYFDY (antibody, V domains shown)
VL: B8 VL
VH: B8 VH with F106H
B19: X66-E04: single point mutation of M142-H08 (P1); HV-CDR3 GGLLLWFQELKSNYFDY (antibody, V domains shown)
VL: B8 VL
VH: B8 VH with F106Q

Target: T1, human plasma kallikrein (human pKal) (Homo sapiens, UniProt P03952)
T1 construct: two disulfide linked polypeptides; a heavy chain of approximately 52 kDa and a catalytic domain of approximately 34 kDa; host or cells: human plasma
T1 sequence (P03952 391-638 limits assumed): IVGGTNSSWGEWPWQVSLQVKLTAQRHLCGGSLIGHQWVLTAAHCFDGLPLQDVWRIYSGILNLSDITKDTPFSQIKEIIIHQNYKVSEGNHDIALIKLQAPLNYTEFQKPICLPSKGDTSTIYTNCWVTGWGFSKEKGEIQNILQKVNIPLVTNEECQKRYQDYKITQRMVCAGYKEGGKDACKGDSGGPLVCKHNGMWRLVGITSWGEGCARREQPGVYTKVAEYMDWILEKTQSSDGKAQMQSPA
T1 sequence (P03952 20-390 partner limits assumed): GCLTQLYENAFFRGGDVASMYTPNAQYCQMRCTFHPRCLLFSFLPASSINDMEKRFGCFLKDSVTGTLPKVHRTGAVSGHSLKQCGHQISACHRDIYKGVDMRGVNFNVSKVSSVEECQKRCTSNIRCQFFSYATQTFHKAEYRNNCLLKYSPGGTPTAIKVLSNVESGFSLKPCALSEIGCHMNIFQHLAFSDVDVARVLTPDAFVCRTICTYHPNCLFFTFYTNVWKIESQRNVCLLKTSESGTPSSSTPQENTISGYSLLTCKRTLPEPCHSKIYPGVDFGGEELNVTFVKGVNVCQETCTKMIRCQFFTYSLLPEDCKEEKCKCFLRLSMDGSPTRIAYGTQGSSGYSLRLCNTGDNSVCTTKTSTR
Assay: Ki,app against human pKal by steady state enzyme kinetics (in vitro protease cleavage assay, Pro-Phe-Arg-aminomethylcoumarin substrate)
Format: biochemical
Settings: Table 6; read-out: Human pKal (Ki, app nM)
Text: The inhibition constant (Ki) provides a measure of inhibitor potency; it is the concentration of inhibitor required to reduce enzyme activity by half and is not dependent on enzyme or substrate concentrations. The apparent Ki (Ki,app) is obtained at different substrate concentrations by measuring the inhibitory effect of different concentrations of inhibitor (e.g., inhibitory binding protein) on the extent of the reaction (e.g., enzyme activity); fitting the change in pseudo-first order rate constant as a function of inhibitor concentration to the Morrison equation (Equation 1) yields an estimate of the apparent Ki value. The Ki is obtained from the y-intercept extracted from a linear regression analysis of a plot of Ki,app versus substrate concentration.
Where v=measured velocity; v0=velocity in the absence of inhibitor; Ki,app=apparent inhibition constant; I=total inhibitor concentration; and E=total enzyme concentration.
The sequence of human plasma kallikrein that was used in selections and subsequent screening of binding proteins is shown below (accession number NP_000883.2). The human plasma kallikrein (86 kDa) that was used was purified from human plasma and activated with factor XIIa by a commercial vendor. Factor XIIa activates prekallikrein by cleaving the polypeptide sequence at a single site (between Arg371-Ile372, cleavage site marked by “/” in the sequence below) to generate active plasma kallikrein, which then consists of two disulfide linked polypeptides; a heavy chain of approximately 52 kDa and a catalytic domain of approximately 34 kDa [Colman and Schmaier, (1997) “Contact System: A Vascular Biology Modulator With Anticoagulant, Profibrinolytic, Antiadhesive, and Proinflammatory Attributes” Blood, 90, 3819-3843]
These antibodies were produced as Fab fragments in small scale (˜20 μg) and tested for inhibition against human pKal in an in vitro protease cleavage assay using Pro-Phe-Arg-aminomethylcoumarin as the synthetic peptide substrate. […] Five antibodies were then expressed in 293T cells and purified by protein A sepharose chromatography. The antibodies were analyzed by SDS-PAGE to determine which of the inhibitory mutants are not cleaved by the host cell protease(s) (data not shown).

Row | Ki [nM] | Molecule
1 | 5.2 | B1
2 | 5.5 | B2
3 | 79 | B3

Same assay, conditions: human pKal; Table 12, antibodies based on M162-A04; read-out: human pKal Ki, app

Row | Ki [nM] | Molecule
4 | 0.2 | B4

Same assay, conditions: human pKal; Table 13, antibodies based on X63-G06; read-out: human pKal Ki, app

Row | Ki [nM] | Molecule
5 | 0.16 | B5
6 | 0.09 | B6
7 | 0.2 | B7

Target: T2, biotinylated plasma kallikrein (human pKal) (Homo sapiens, UniProt P03952)
T2 construct: two disulfide linked polypeptides; a heavy chain of approximately 52 kDa and a catalytic domain of approximately 34 kDa; host or cells: human plasma
T2 sequence (P03952 391-638 limits assumed): as the sequence (P03952 391-638 limits assumed) above
T2 sequence (P03952 20-390 partner limits assumed): as the sequence (P03952 20-390 partner limits assumed) above
Assay: Human pKal ELISA (T/B)
Format: binding
Settings: ELISA signal of target (biotinylated plasma kallikrein) divided by signal of background (streptavidin); Table 6

Row | Human pKal ELISA (T/B) | Molecule
8 | 48.5 | B1
9 | 33.3 | B2
10 | 4.5 | B3

Target: T3, pKal (Homo sapiens, UniProt P03952)
T3 construct: two disulfide linked polypeptides; a heavy chain of approximately 52 kDa and a catalytic domain of approximately 34 kDa; host or cells: human plasma
T3 sequence (P03952 391-638 limits assumed): as the sequence (P03952 391-638 limits assumed) above
T3 sequence (P03952 20-390 partner limits assumed): as the sequence (P03952 20-390 partner limits assumed) above
Assay: Fab fragments (small scale) tested for inhibition against human pKal in an in vitro protease cleavage assay
Format: biochemical
Settings: Table 9

Row | Inhibit as a Fab? | Molecule
11 | No | B8
12 | No | B9
13 | No | B10
14 | No | B11
15 | No | B12
16 | No | B13
17 | No | B14
18 | No | B15
19 | No | B16
20 | No | B17
21 | No | B18
22 | No | B19

Target: T3, pKal
Assay: Inhibition screening with 10 nM antibody (as Fab fragments)
Format: biochemical
Settings: Table 12, antibodies based on M162-A04
Text: The 82 antibodies that were discovered based on improvements in M162-A04 due to modifications in either the CDR1/2 and CDR3 region are shown in Table 12.
The 62 antibodies that were discovered based on improvements in X63-G06 due to modifications in either the CDR1/2 and CDR3 region are shown in Table 13.

Row | % inhibition at 10 nM [%] | Molecule
23 | 97.5 | B4

Same assay, conditions: Table 13, antibodies based on X63-G06

Row | % inhibition at 10 nM [%] | Molecule
24 | 95.6 | B5
25 | 97.6 | B6
26 | 92.6 | B7
